# IntAct's records for PubMed 20493856
# B1: ADP-ribosylation factor 6 (Mus musculus), P62331 (parent)
# chain: MGKVLSKIFGNKEMRILMLGLDAAGKTTILYKLKLGQSVTTIPTVGFNVETVTYKNVKFNVWDVGGQDKIRPLWRHYYTGTQGLIFVVDCADRDRIDEARQELHRIINDREMRDAIILIFANKQDLPDAMKPHEIQEKLGLTRIRDRNWYVQPSCATSGDGLYEGLTWLTSNYKS
# partner: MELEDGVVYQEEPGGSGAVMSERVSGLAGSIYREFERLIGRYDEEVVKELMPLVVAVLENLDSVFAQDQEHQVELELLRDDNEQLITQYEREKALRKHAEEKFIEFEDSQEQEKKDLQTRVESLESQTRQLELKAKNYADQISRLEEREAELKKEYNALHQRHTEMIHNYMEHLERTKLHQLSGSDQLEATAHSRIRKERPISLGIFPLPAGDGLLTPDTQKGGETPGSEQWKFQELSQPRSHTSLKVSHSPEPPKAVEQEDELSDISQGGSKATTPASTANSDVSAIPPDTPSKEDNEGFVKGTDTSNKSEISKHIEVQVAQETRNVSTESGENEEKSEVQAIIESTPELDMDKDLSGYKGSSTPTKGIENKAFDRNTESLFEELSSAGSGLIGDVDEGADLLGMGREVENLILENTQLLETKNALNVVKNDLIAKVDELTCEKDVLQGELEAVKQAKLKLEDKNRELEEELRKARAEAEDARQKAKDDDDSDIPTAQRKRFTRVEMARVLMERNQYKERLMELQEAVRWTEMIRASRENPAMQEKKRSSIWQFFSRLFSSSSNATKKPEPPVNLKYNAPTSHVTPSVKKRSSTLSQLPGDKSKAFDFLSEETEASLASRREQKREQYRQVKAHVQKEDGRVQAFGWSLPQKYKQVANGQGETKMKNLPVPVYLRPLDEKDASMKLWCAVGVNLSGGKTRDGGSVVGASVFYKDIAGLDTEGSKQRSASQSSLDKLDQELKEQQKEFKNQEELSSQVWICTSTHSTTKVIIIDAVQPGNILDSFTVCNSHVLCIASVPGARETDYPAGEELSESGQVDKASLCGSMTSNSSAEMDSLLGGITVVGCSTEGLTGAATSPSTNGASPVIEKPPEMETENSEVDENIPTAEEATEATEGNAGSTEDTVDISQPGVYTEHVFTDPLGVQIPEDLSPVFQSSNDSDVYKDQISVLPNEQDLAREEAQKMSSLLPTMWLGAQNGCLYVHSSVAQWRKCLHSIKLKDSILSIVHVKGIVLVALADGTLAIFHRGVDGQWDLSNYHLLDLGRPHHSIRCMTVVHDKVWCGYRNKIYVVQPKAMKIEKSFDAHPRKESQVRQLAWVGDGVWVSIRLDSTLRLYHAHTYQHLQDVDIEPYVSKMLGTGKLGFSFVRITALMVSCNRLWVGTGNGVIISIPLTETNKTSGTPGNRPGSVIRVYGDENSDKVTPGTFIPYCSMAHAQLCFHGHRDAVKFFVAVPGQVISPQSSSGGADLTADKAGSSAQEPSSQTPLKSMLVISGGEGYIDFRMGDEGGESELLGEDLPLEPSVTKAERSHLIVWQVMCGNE
# B2: ADP-ribosylation factor 6 (Mus musculus), P62331 (parent)
# chain: B1 chain
# partner: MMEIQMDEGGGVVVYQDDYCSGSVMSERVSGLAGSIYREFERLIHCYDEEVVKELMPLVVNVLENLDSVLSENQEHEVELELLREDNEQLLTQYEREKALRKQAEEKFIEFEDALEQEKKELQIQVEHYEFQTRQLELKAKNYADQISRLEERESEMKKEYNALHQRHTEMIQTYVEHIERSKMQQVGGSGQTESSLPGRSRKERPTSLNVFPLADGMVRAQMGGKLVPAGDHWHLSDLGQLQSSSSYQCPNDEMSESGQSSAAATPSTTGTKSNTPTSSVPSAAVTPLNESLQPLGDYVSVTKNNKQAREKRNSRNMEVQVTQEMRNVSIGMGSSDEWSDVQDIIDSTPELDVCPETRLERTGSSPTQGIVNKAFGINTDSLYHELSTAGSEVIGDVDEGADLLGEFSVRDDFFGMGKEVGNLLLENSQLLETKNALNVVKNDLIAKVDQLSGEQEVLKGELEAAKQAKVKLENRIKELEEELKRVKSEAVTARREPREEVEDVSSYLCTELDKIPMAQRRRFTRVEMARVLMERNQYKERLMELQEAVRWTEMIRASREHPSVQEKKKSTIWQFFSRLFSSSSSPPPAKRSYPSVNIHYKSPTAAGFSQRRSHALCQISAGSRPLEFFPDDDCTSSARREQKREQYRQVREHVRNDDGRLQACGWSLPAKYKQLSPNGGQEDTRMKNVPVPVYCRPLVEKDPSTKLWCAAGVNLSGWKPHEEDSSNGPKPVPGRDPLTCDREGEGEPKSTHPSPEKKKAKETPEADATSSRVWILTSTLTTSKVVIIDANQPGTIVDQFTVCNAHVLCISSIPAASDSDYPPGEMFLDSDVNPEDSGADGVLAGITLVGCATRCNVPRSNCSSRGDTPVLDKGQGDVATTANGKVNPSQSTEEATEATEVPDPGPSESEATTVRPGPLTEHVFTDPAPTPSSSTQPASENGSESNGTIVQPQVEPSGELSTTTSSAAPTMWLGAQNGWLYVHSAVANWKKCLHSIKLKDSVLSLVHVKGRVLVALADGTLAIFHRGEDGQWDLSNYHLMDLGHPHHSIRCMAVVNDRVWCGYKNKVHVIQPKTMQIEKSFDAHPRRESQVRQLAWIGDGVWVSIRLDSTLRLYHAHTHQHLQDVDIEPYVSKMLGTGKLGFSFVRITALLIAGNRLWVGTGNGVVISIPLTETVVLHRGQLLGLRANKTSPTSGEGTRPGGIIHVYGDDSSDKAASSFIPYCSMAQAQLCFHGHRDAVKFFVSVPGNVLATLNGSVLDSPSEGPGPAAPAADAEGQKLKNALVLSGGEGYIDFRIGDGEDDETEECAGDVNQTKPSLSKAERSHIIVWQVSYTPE
# Variants of: B1
# Settings: with jip4_mouse Spag9, Q58A65
row,Variant,effect of a mutation on the interaction
1,L19V,decreasing interaction

# Variants of: B1
# Settings: with jip4_mouse Spag9, Q58A65
# Remark: another data set of the same source
row,Variant,effect of a mutation on the interaction
1,K58C,disrupting interaction
2,T53E,disrupting interaction
3,N60T,disrupting interaction

# Variants of: B1
# Settings: with jip4_mouse Spag9, Q58A65
# Remark: another data set of the same source
row,Variant,effect of a mutation on the interaction
1,K58C,decreasing interaction

# Variants of: B1
# Settings: with jip4_mouse Spag9, Q58A65
# Remark: another data set of the same source
row,Variant,effect of a mutation on the interaction
1,T53E,decreasing interaction

# Variants of: B1
# Settings: with jip4_mouse Spag9, Q58A65
# Remark: another data set of the same source
row,Variant,effect of a mutation on the interaction
1,T27N,disrupting interaction

# Variants of: B1
# Settings: with jip4_mouse Spag9, Q58A65
# Remark: another data set of the same source
row,Variant,effect of a mutation on the interaction
1,T27N,decreasing interaction

# Variants of: B1
# Settings: with jip4_mouse Spag9, Q58A65
# Remark: another data set of the same source
row,Variant,effect of a mutation on the interaction
1,N60T,decreasing interaction

# Variants of: B2
# Settings: with jip3_mouse Mapk8ip3, Q9ESN9
row,Variant,effect of a mutation on the interaction
1,K58C,disrupting interaction
2,N60T,disrupting interaction
3,T53E,disrupting interaction

# Variants of: B2
# Settings: with jip3_mouse Mapk8ip3, Q9ESN9
# Remark: another data set of the same source
row,Variant,effect of a mutation on the interaction
1,K58C,decreasing interaction

# Variants of: B2
# Settings: with jip3_mouse Mapk8ip3, Q9ESN9
# Remark: another data set of the same source
row,Variant,effect of a mutation on the interaction
1,T27N,decreasing interaction

# Variants of: B2
# Settings: with jip3_mouse Mapk8ip3, Q9ESN9
# Remark: another data set of the same source
row,Variant,effect of a mutation on the interaction
1,T27N,disrupting interaction

# Variants of: B2
# Settings: with jip3_mouse Mapk8ip3, Q9ESN9
# Remark: another data set of the same source
row,Variant,effect of a mutation on the interaction
1,T53E,decreasing interaction

# Variants of: B2
# Settings: with jip3_mouse Mapk8ip3, Q9ESN9
# Remark: another data set of the same source
row,Variant,effect of a mutation on the interaction
1,L19V,decreasing interaction
